From patent US20190300590A1 come the findings set out here.

Assay [1] addresses IL23R_huFC (human) (UniProt Q5VWK5). Kind of assay: IL23-IL23R competitive binding ELISA. (In general: ELISA stands for enzyme-linked immunosorbent assay.)
Target sequence in this assay (Q5VWK5 24-353 limits assumed): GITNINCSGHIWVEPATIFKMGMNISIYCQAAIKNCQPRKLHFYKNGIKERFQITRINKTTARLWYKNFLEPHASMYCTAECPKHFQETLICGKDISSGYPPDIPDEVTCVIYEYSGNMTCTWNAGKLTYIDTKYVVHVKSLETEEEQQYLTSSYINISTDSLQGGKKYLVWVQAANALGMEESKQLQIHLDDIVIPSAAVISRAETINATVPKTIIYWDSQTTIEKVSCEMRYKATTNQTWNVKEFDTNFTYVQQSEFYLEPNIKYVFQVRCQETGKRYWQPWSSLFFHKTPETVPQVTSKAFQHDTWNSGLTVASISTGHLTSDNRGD
Assay [2] concerns the target Rat IL-23R_huFC (rat) (UniProt F1LX96). Kind of assay: rat IL-23R competitive binding ELISA.
Assay [3] concerns the target IL23R_huFC (human) (UniProt Q5VWK5). Kind of assay: human ELISA vs IL-23.
Target sequence in this assay (Q5VWK5 24-353): as the sequence (Q5VWK5 24-353 limits assumed) above

*1 amine or outer side, *2 acyl side, *3 side chain or, on linkers, in order; H or OH if unused. Bridges are numbered along the chain shown (N, C = ends). Primed or numbered codes have the meaning given here. [ ]: non-standard residue; d: D form. Phe(4-(2-acetylaminoethoxy))″ = 4-(2-acetylaminoethoxy)phenylalanine, CC(=O)NCCOc1ccc(C[C@H](N[*:1])C(=O)[*:2])cc1; Phe(4-OMe)(4) = O-methyl-L-tyrosine, COc1ccc(C[C@H](N[*:1])C(=O)[*:2])cc1; 2Nal = N[C@@H](Cc1ccc2ccccc2c1)C(=O)O; AEF = NCCOc1ccc(C[C@H](N)C(=O)O)cc1; Cit = NC(=O)NCCC[C@H](N)C(=O)O; αMeOrn = C[C@](N)(CCCN)C(=O)O; Pen = CC(C)(S)[C@H](N)C(=O)O; αMeK = C[C@](N)(CCCCN)C(=O)O; Orn = NCCC[C@H](N)C(=O)O; Dab = NCC[C@H](N)C(=O)O; Abu = CC[C@H](N)C(=O)O; Dap = NC[C@H](N)C(=O)O; Aib = CC(C)(N)C(=O)O

Usually IC50 stands for the concentration at which inhibition is half-maximal. Turning to XQTWQXYXXENG (Ac; Pen-Pen disulfide; 2-Nal; α-MeOrn; NH2) [Ac-[Pen]-QTWQ-[Pen]-Y-[2-Nal]-[α-MeOrn]-ENG-NH2], the results for the concentration for half-maximal inhibition (IC50) in assay [1] and in assay [2] were 25 to 100 nM and 100 to 1000 nM, respectively. In turn, XNTWQXFXXKNA (Ac; Pen-Pen disulfide; Phe[4-(2-aminoethoxy)]; 2-Nal; Aib; Lys(Ac); βAla; NH2) [Ac-[Pen]-NTWQ-[Pen]-[Phe[4-(2-aminoethoxy)]-[2-Nal]-[Aib]-[Lys(Ac)]-N-[βAla]-NH2] yielded an IC50 in assay [2] of 10 to 25 nM.

With Ac-[Abu]QTWQC[AEF][2Nal][Aib]E[Dap](Ac)G-NH2 (thioether 1-6) [Ac-Cyclo-[[Abu]-QTWQC]-[Phe[4-(2-aminoethoxy)]]-[2-Nal]-[Aib]-E-[Dap(Ac)]-G-NH2], in assay [3], the IC50 fell in the range of 10 to 25 nM. Molecule XQTWQXFXXKNN (Ac; Pen-Pen disulfide; Phe[4-(2-aminoethoxy)]; 2-Nal; Aib; Lys(Ac); NH2) [Ac-[Pen]-QTWQ-[Pen]-[Phe[4-(2-aminoethoxy)]-[2-Nal]-Aib-[Lys(Ac)]-NN-NH2] returned a half-maximal inhibitory concentration (IC50) in assay [1] of less than 10 nM. On to Ac-[Abu]QTWQC[AEF][2Nal][Cit][Dap]NG-NH2 (thioether 1-6) [Ac-Cyclo-[[Abu]-QTWQC]-[Phe[4-(2-aminoethoxy)]]-[2-Nal]-[Cit]-[Dap]-NG-NH2], for which, in assay [3], the IC50 was 10 to 25 nM.

In turn, XQTWQXFXXKNN (Ac; Pen-Pen disulfide; Phe[4-(2-acetylaminoethoxy)]; 2-Nal; Aib; Lys(Ac); NH2) [Ac-[Pen]-QTWQ-[Pen]-[Phe[4-(2-acetylaminoethoxy)]-[2-Nal]-[Aib]-[Lys(Ac)]-NN-NH2] showed an IC50 in assay [1] of less than 10 nM.

XQTWQXFXXENN (Ac; Pen-Pen disulfide; Phe[4-(2-acetylaminoethoxy)]; 2-Nal; Aib; NH2) [Ac-[Pen]-QTWQ-[Pen]-[Phe[4-(2-acetylaminoethoxy)]-[2-Nal]-[Aib]-ENN-NH2] had a half-inhibitory concentration (IC50) in assay [1] of 10 to 25 nM. Ac-[Pen][αMeOrn](Ac)TWQ[Pen][Phe(4-(2-acetylaminoethoxy))″][2Nal][αMeK](Ac)ENG-NH2 (disulfide 1-6 (inferred)) [Ac-[Pen]-[α-MeOrn(Ac)]-TWQ-[Pen]-[Phe[4-(2-acetylaminoethoxy)]-[2-Nal]-[α-MeLys(Ac)]-ENG-NH2] displayed an IC50 in assay [1] of 100 to 1000 nM.

For Ac-[Abu]QTWQC[Phe(4-OMe)(4)][2Nal][Orn][Dap]NG-NH2 (thioether 1-6) [Ac-Cyclo-[[Abu]-QTWQC]-[Phe(4-OMe)]-[2-Nal]-[Orn]-[Dap]-NG-NH2], the IC50 in assay [3] is 100 to 1000 nM.

B1: [Ac-[Pen]-NTWQ-[Pen]-[Phe(4-CONH2)]-[2-Nal]-[Acvc]-KNN-NH2]2DIG (peptide)
peptide: XNTWQXFXXKNN
modifications: Ac; Pen-Pen disulfide; Phe(4-CONH2); 2-Nal; Acvc; NH2; DIG linker joins the two subunits
With B1, the figures for the IC50 in assay [1] and in assay [2] were less than 10 nM and 10 to 25 nM, respectively.

Regarding XNTWQXFXXKNN (Ac; Pen-Pen disulfide; Phe[4-(2-aminoethoxy)]; 2-Nal; Aib; Lys(Ac); NH2) [Ac-[Pen]-NTWQ-[Pen]-[Phe[4-(2-aminoethoxy)]-[2-Nal]-[Aib]-[Lys(Ac)]-NN-NH2], the IC50 in assay [1] and in assay [2] was less than 10 nM in each case. With XQTWQXYXXENG (Ac; Pen-Pen disulfide; 1-Nal; α-MeOrn; NH2) [Ac-[Pen]-QTWQ-[Pen]-Y-[1-Nal]-[α-MeOrn]-ENG-NH2], the IC50 in assay [1] and in assay [2] was 100 to 1000 nM throughout.

B2: Ac-[Pen]-QTWQ-[Pen]-[2-Nal]-[2-Nal]-[α-MeLys]-ENG-NH2 (peptide)
peptide: Ac-[Pen]QTWQ[Pen][2Nal][2Nal][αMeK]ENG-NH2
modifications: disulfide 1-6
SMILES: CC(=O)N[C@@H]1C(=O)N[C@@H](CCC(N)=O)C(=O)N[C@@H]([C@@H](C)O)C(=O)N[C@@H](Cc2c[nH]c3ccccc23)C(=O)N[C@@H](CCC(N)=O)C(=O)N[C@H](C(=O)N[C@@H](Cc2ccc3ccccc3c2)C(=O)N[C@@H](Cc2ccc3ccccc3c2)C(=O)N[C@@](C)(CCCCN)C(=O)N[C@@H](CCC(=O)O)C(=O)N[C@@H](CC(N)=O)C(=O)NCC(N)=O)C(C)(C)SSC1(C)C
B2: the half-inhibitory concentration (IC50) in assay [1] and in assay [2] was 100 to 1000 nM throughout. Ac-[Abu]QTWQC[AEF][2Nal][Aib]E[Dab](Ac)G-NH2 (thioether 1-6) [Ac-Cyclo-[[Abu]-QTWQC]-[Phe[4-(2-aminoethoxy)]]-[2-Nal]-[Aib]-E-[Dab(Ac)]-G-NH2]: the IC50 in assay [3] was less than 10 nM. XQTWQXFXXKNG (Ac; Pen-Pen disulfide; Phe(4-OMe); 2-Nal; α-MeOrn; Lys(Ac); NH2) [Ac-[Pen]-QTWQ-[Pen]-[Phe(4-OMe)]-[2-Nal]-[α-MeOrn]-[Lys(Ac)]-NG-NH2] yielded a half-maximal inhibitory concentration (IC50) in assay [1] of 100 to 1000 nM.

In the case of Ac-[Pen][Dap]TWQ[Pen][AEF][2Nal][αMeK]ENG-NH2 (disulfide 1-6 (inferred)) [Ac-[Pen]-[Dap]-TWQ-[Pen]-[Phe[4-(2-aminoethoxy)]-[2-Nal]-[α-MeLys]-ENG-NH2], the values for the 50% inhibitory concentration (IC50) in assay [1] and in assay [2] were less than 10 nM and 25 to 100 nM, respectively. Turning to XQTWQXFXXENN (Ac; Pen-Pen disulfide; Phe[4-(2-aminoethoxy)]; 2-Nal; Aib; NH2) [Ac-[Pen]-QTWQ-[Pen]-[Phe[4-(2-aminoethoxy)]-[2-Nal]-[Aib]-ENN-NH2], the IC50 in assay [1] is less than 10 nM.

B3: [Ac-[Pen]-NTWQ-[Pen]-[Phe(4-CONH2)]-[2-Nal]-[Aib]-KNN-NH2]2DIG (peptide)
peptide: XNTWQXFXXKNN
modifications: Ac; Pen-Pen disulfide; Phe(4-CONH2); 2-Nal; Aib; NH2; DIG linker joins the two subunits
Turning to B3, the IC50 in assay [1] was less than 10 nM; in assay [2] it was 10 to 25 nM.

Molecule Ac-[Pen][Dap](Ac)TWQ[Pen][Phe(4-(2-acetylaminoethoxy))″][2Nal][αMeK](Ac)ENG-NH2 (disulfide 1-6 (inferred)) [Ac-[Pen]-Dap(Ac)TWQ-[Pen]-[Phe[4-(2-acetylaminoethoxy)]-[2-Nal]-[α-MeLys(Ac)]-ENG-NH2] came in with a half-inhibitory concentration (IC50) in assay [1] of 10 to 25 nM. For Ac-[Abu]QTWQC[AEF][2Nal][Orn][Dap](Ac)NG-NH2 (thioether 1-6) [Ac-Cyclo-[[Abu]-QTWQC]-[Phe[4-(2-aminoethoxy)]]-[2-Nal]-[Orn]-[Dap(Ac)]-NG-NH2], the half-inhibitory concentration (IC50) in assay [3] fell in the range of 25 to 100 nM.

With Ac-[Abu]QTWQC[AEF][2Nal][Orn][Dap]NG-NH2 (thioether 1-6) [Ac-Cyclo-[[Abu]-QTWQC]-[Phe[4-(2-aminoethoxy)]]-[2-Nal]-[Orn]-[Dap]-NG-NH2], in assay [3], the IC50 lay in the range of 25 to 100 nM. In assay [1], Ac-[Pen][αMeOrn]TWQ[Pen][AEF][2Nal][αMeK]ENG-NH2 (disulfide 1-6 (inferred)) [Ac-[Pen]-[α-MeOrn]-TWQ[Pen]-[Phe[4-(2-aminoethoxy)]-[2-Nal]-[α-MeLys]-ENG-NH2] returned a 50% inhibitory concentration (IC50) of 100 to 1000 nM.
